Laboratory results taken from US20220119534A1 (DRAGONFLY THERAPEUTICS, published 2022).
Positions count from the first letter of the chain named. Blank lines part the entries; values can stand above or below the binder they belong to.

What was measured:
[1] = biological target: T1, human CLEC12A expressed on cells (human, UniProt Q5QGZ9 1-265); test: flow cytometry, PL21 cells
T1 construct: Transduced isogenic cells or endogenous expression on AML cells; also called RMA-hCLEC12A; Ba/F3-hCLEC12A
T1 sequence: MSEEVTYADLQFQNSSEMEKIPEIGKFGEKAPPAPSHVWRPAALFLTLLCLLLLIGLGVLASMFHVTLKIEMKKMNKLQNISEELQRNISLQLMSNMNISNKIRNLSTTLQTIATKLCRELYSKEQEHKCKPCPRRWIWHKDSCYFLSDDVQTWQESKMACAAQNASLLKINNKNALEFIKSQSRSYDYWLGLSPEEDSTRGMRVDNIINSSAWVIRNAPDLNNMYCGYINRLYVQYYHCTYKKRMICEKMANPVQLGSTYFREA

[2] = biological target: T2, Human CLEC12A expressed on cells (Ba/F3-hCLEC12A, PL21, HL60) (human, UniProt Q5QGZ9 1-265); test: cell-based or functional assay
T2 sequence: T1 sequence

[3] = biological target: T3, human CLEC12A on cells (HL60, PL21, Ba/F3-hCLEC12A) (human, UniProt Q5QGZ9 1-265); test: flow cytometry, 40 nM, MFI after 2 h 37 C relative to 2 h on ice, HL60 cells
T3 construct: Endogenous on the AML lines HL60 and PL21; brought into mouse Ba/F3 cells by retroviral transduction; The cell line stands under assay; also called CLL-1
T3 sequence: T1 sequence

[4] = biological target: T3, human CLEC12A on cells (HL60, PL21, …); test: flow cytometry, HL60 cells
[5] = biological target: T3, human CLEC12A on cells (HL60, PL21, …); test: flow cytometry, Ba/F3-hCLEC12A cells
[6] = biological target: T3, human CLEC12A on cells (HL60, PL21, …); test: flow cytometry, PL21 cells
[7] = biological target: T3, human CLEC12A on cells (HL60, PL21, …); test: flow cytometry, 40 nM, MFI after 2 h 37 C relative to 2 h on ice, PL21 cells
[8] = biological target: T1, human CLEC12A expressed on cells; test: flow cytometry, hCLEC12A+ Ba/F3
[9] = biological target: T1, human CLEC12A expressed on cells; test: flow cytometry, HL60
[10] = biological target: T4, recombinant human CLEC12A-His (human, UniProt Q5QGZ9 65-265); test: SPR screening, semi-purified
T4 construct: also called hCLEC12A-His; hCLEC12A
T4 sequence: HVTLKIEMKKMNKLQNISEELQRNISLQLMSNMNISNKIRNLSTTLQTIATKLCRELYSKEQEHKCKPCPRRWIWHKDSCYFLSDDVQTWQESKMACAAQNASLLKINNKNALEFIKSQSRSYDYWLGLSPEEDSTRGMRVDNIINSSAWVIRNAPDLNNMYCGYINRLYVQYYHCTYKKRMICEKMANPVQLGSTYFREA

EC50 [1]: 2.02 nM | Max MFI [1]: 201 MFI
B1: Merus-CLL1 (antibody, V domains shown)
VH: EVQLVQSGAEVKKPGASVKVSCKASGYTFTSYYMHWVRQAPGQGLEWMGIINPSGGSTSYAQKFQGRVTMTRDTSTSTVYMELSSLRSEDTAVYYCARGNYGDEFDYWGQGTLVTVSS
VL: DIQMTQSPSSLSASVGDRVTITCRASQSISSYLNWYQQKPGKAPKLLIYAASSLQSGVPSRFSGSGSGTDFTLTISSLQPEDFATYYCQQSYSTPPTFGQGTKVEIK

% Max, ADCP activity of M0 macrophages against PL21 cells [2]: 11% | EC50, ADCP activity of M0 macrophages against PL21 cells [2]: 0.05 nM
B2: AB0037 mAb (Humanized 1602 anti-CLEC12A mAb) (antibody, V domains shown)
VH: QLQLQESGPGLVKPSETLSLTCTVSGFSLTNYGLHWIRQPPGKGLEWIGVIWSGGKTDYNPSLKSRVTISKDTSKNQFSLKLSSVQAADTAVYYCAKYDYDDSLDYWGQGTLVTVSS
VL: DIQMTQSPSSLSASVGDRVTITCHASQNINFWLSWYQQKPGKAPKLLIYEASNLHTGVPSRFSGSGSGTRFTLTISSLQPEDIATYYCQQSHSYPLTFGGGTKLEIK

EC50 [1]: 5 nM | Max MFI [1]: 265 MFI
B3: Genentech-h6E7 (antibody, V domains shown)
VH: EVQLVQSGAEVKKPGASVKVSCKASGYSFTDYYMHWVRQAPGQGLEWIGRINPYNGAAFYSQNFKDRVTLTVDTSTSTAYLELSSLRSEDTAVYYCAIERGADLEGYAMDYWGQGTLVTVSS
VL: DIQMTQSPSSLSASVGDRVTITCRASQSVSTSSYNYMHWYQQKPGKPPKLLIKYASNLESGVPSRFSGSGSGTDFTLTISSLQPEDFATYYCQHSWEIPLTFGQGTKVEIK

% Max, ADCP activity of M0 macrophages against PL21 cells [2]: 12% | EC50, ADCP activity of M0 macrophages against PL21 cells [2]: 0.08 nM
B4: AB0237 (F3'-1602 TriNKET) (bispecific antibody, human IgG1, kappa)
chain: QLQLQESGPGLVKPSETLSLTCTVSGFSLTNYGLHWIRQPPGKCLEWIGVIWSGGKTDYNPSLKSRVTISKDTSKNQFSLKLSSVQAADTAVYYCAKYDYDDSLDYWGQGTLVTVSSGGGGSGGGGSGGGGSGGGGSDIQMTQSPSSLSASVGDRVTITCHASQNINFWLSWYQQKPGKAPKLLIYEASNLHTGVPSRFSGSGSGTRFTLTISSLQPEDIATYYCQQSHSYPLTFGCGTKLEIKGSDKTHTCPPCPAPELLGGPSVFLFPPKPKDTLMISRTPEVTCVVVDVSHEDPEVKFNWYVDGVEVHNAKTKPREEQYNSTYRVVSVLTVLHQDWLNGKEYKCKVSNKALPAPIEKTISKAKGQPREPRVYTLPPCRDELTKNQVSLTCLVKGFYPSDIAVEWESNGQPENNYKTTPPVLVSDGSFTLYSKLTVDKSRWQQGNVFSCSVMHEALHNHYTQKSLSLSPG
heavy: EVQLVESGGGLVKPGGSLRLSCAASGFTFSSYSMNWVRQAPGKGLEWVSSISSSSSYIYYADSVKGRFTISRDNAKNSLYLQMNSLRAEDTAVYYCARGAPIGAAAGWFDPWGQGTLVTVSSASTKGPSVFPLAPSSKSTSGGTAALGCLVKDYFPEPVTVSWNSGALTSGVHTFPAVLQSSGLYSLSSVVTVPSSSLGTQTYICNVNHKPSNTKVDKKVEPKSCDKTHTCPPCPAPELLGGPSVFLFPPKPKDTLMISRTPEVTCVVVDVSHEDPEVKFNWYVDGVEVHNAKTKPREEQYNSTYRVVSVLTVLHQDWLNGKEYKCKVSNKALPAPIEKTISKAKGQPREPQVCTLPPSRDELTENQVSLTCLVKGFYPSDIAVEWESNGQPENNYKTTPPVLDSDGSFFLYSWLTVDKSRWQQGNVFSCSVMHEALHNHYTQKSLSLSPG
light: DIQMTQSPSSVSASVGDRVTITCRASQGISSWLAWYQQKPGKAPKLLIYAASSLQSGVPSRFSGSGSGTDFTLTISSLQPEDFATYYCQQGVSFPRTFGGGTKVEIKRTVAAPSVFIFPPSDEQLKSGTASVVCLLNNFYPREAKVQWKVDNALQSGNSQESVTEQDSKDSTYSLSSTLTLSKADYEKHKVYACEVTHQGLSSPVTKSFNRGEC

percent surface retention [3]: 106% | EC50 [4]: 1.01 nM | FOB (fold over background) [4]: 66 fold | EC50 [5]: 1.54 nM | FOB (fold over background) [5]: 341 fold | EC50 [6]: 0.52 nM | FOB (fold over background) [6]: 15 fold | percent surface retention [7]: 91%
B5: F3'-1602 TriNKET (other)
chain: B4 chain
heavy: B4 heavy
light: B4 light
notes: F3' format TriNKET; also called AB0237

percent surface retention [3]: 147% | EC50 [4]: 1.08 nM | FOB (fold over background) [4]: 70 fold | EC50 [5]: 2.28 nM | FOB (fold over background) [5]: 434 fold | EC50 [6]: 0.34 nM | FOB (fold over background) [6]: 16 fold | percent surface retention [7]: 124%
B6: AB0089 TriNKET (other)
chain: B4 chain with S53V, K56A, K71V, Y98G, D101G, S103T, R207D, I220F
heavy: B4 heavy
light: B4 light
notes: F3' format TriNKET

EC50 [8]: 1.3 nM | Max binding MFI [8]: 8760 MFI | EC50 [9]: 0.7 nM | Max binding MFI [9]: 420 MFI | Kd [10]: 1.21 nM | koff [10]: 0.00127 s⁻¹ | kon [10]: 1.04e+06 M⁻¹ s⁻¹
B7: AB0189 (other)
chain: DIKMTQSPSSLSASVGDRVTITCKASQDIYNYLSWFQQKPGKAPKPLIYRANILVSGVPSRFSGSGSGQDYTLTISSLQPEDIATYYCLQFDAFPFTFGCGTKLEIKGGGGSGGGGSGGGGSGGGGSEVQLVESGGGVVQPGGSLRLSCAASGFTFNAFGMHWVRQAPGKCLEWVAFISSGSTSIYYANTVKGRFTISRDNSKNTLYLQMNSLRAEDTAVYYCARDGYPTGGAMDYWGQGTSVTVSSGSDKTHTCPPCPAPELLGGPSVFLFPPKPKDTLMISRTPEVTCVVVDVSHEDPEVKFNWYVDGVEVHNAKTKPREEQYNSTYRVVSVLTVLHQDWLNGKEYKCKVSNKALPAPIEKTISKAKGQPREPRVYTLPPCRDELTKNQVSLTCLVKGFYPSDIAVEWESNGQPENNYKTTPPVLVSDGSFTLYSKLTVDKSRWQQGNVFSCSVMHEALHNHYTQKSLSLSPG
heavy: B4 heavy
light: B4 light
notes: As AB0185
